# Measured values published in the DeepSol protein solubility set.
# Assay: soluble on expression in E. coli; label from the status in PepcDB or PDB records
row,Sequence,soluble on expression in E. coli
1,GPGSMEQWSACEAATRRVLAVDRTERYPSARRLVRVFISQGRLQEAQQAVSPHRDAIDWAAEVAAVKACTSYTNFYAAHQYSKALESLEVVLSLCPCGTLEAAKARLLSLENAAQAVSYAAQRSRAYATSTELHFCLWSLTFHSVTSVVGLDTLLADMQATPLGRSELRFRHLHTHIARCKEALAKLQVLKTARQWREAATFVTQVLAEPFLPDGLKGVMYYERARALAQQASWYATLDDTHRALSYTEAVSLRANMLLLVARCEEALGRLRDAVYHTEESLGLASNAAAVEQLRSLKARWAHVQASTDAPRTTPRTTSKETPKPNTNANAFSPVSRASLDVHYKTLSLPRSAGAAEVKKSYRALAIKWHPDRWCSASTEAIRTAESTFKTIQHAYEEIMKSAS,not soluble
2,GPGSMERVTYARTGALRSTYAGLPVTKERLVTAAPAKWFPLLTTVPQRVLKSISDSDGVDGSLLGFLPIAFVFEELRKHLSDFTQHAAFLRAVLQWYHQTAGDTLESEIATDKVEIFQPYLPAYRLRVLKEGETVATFNDISRRAVTLMGKDRGINDIPLDHPSCSAQHAALEVNFVHRNSEPFQQRLHTLMQEEYRNINWSSPDEVGKLCAHALQLMREFGGDEDMWLMELQVVDLGSTNGTNLNGELLRPLERATVIEGDVLTFGYSTRKYLIVRA,soluble
3,GPGSMGTDKVMSEKLVLEKTKVKSLSDVQRLDMWGEGLTDISLVAKLPRLEVLALAANNVSSLKALQGCELLQELYLRKNKVANLREVTALRVLPTLSVLWLRDNPCAQHPYYREFVLHCCPGLRQLDGVEVTADERKAAAKRLTTKTLDEILGRSACADAASSPRPKKSSGAGSSPAKATDVTPSSTPGGVSDSTATIEERNASSRSVLFTTVAAQRAMLLSIVSLLSELTVESLELLQREVQERVEKQKEKLTKYVQENSQ,soluble
4,GPGSMHAAPYEEVALSDMLLEDGKLRYPCPCGDLFELSLSEFAKGSVVAECPTCSLTVRIICNEEERHAFLLRCNALNGVRDVVIA,not soluble
5,GPGSMHGIRRWRVRLVNRACQSLSGSLVFSACRHCATVPTEDDVRKAYKILGVHTSATLTDVKKRYGDLAKEHHPDVSNSSAVSSTNRMTDINNAYNTVKQFHQAGRRLFEATRAPNASGASDSSSSSYYSKQDSAYQPWYEDMDPLMYELMWEEMRRQNEEDSFARNMHAEAFYRPNDRWRPPRGNASARPRQSSGSSDGRQSHAGKKSPSSTTWPEEQVKAMVNMYQDGKSFEFIANALGKESAAAVLEEFNRWSSDNQPQRRKGAKPHHARRHRYHGGHGPFYHTESPDEVPFELYEMMEEEPYYDGSSEESGDPFGYYSGDGEAYDVPYTHATPFYGVHQMNGGPAPYGHFEGGVGREYNSSRKMSHRPMRNHRGGPPNKNRRYGGTSSNHKGSGGGFQSGNGKSHGSGGGKT,not soluble
6,GPGSMHRIVKVNVGGRYFQTRLSTLLRFPDTSFARMFEGLASTSALPPTLSPPPQPTESEDVFVDANPDVFEKVLGFLRTNRIQLPLNDECLRAELVHHLNSWDLMPHAFPASAADGAVEGEEAHRIELPDVCVVQLCDHMQHDQGVKRHAMTITYGADGFQLRKLTQMIRRDLNQQLSSTYWQCYQTNERAAFFATTKVANGAADILTTSITQQVVQHTERLGYHLATSYVTL,not soluble
7,GPGSMLLERQQLVQALQLSYHCSAACATSTVNSYYPDEEKCRATVQGKMTAPFVLAVGMVPKQREYVDSLRDDLAVAFQHFPYLNGTAKPPDKEEQKGCAKAVASGERGRNGRASSPASIDWAGVRARLLSPKKVPLWYMHTELVFPGDTHDVRIYENAYQSLIVKEGFSYVIGCYASGDGVVPALDYVNARLCGESVQSLAQRIGFDDDVVEALEGLEAEVPTRVYTRVNAFGNNPATSRSSRQDKGHAQQVLKEAGLAYVRSYVTTRADEAVAKVEDGTLLLPVVVKPNSGAGSEFVTLCYTVDDIRVAFSMVEGVRTSQGTDAAQLVVEEYIEGPEYVVNTVSYQGVHVVTDVWESWKYPEPVVTTGLTRSAEEALRAAGIKRQKQRKISILYDRQTLITNLADLPATHSARRIVEYTLKCLDALGLENGCGHSEVRLDTRKAARELRRHEQRRPKTNSPLGKVKDEHLDEGEPILIELNSRMQGDIPRSTDVIGYDQYSLLVYISEAVNVFGAATAASTALPFRVDSSRPQRVGEIPWPPVPRLYRARPSTGLPLATTVLFLATEEECILNGVALRTLTELGTFQRFTRTIFKPNQPGFVTPLRHTVDLFSSPTSCVMQGPAAAVKADCAAIRSMESAALCSAAKAALFKLTSTIHETERLRENARIIDGRLHAMTEAYRRASAQAGSATDEVADDGREKDEQGTENDCCSSQHDLEALRRSISSLQSELTWVTNNLAADDRQVQLLRTEFAKALASQKPAPLYINYQDFSMMKAAGVGNELAVL,not soluble
